The record followed here is US12534531 (MacroGenics, dated 2026).

Assay [1] concerns the target T1, human LAG-3 expressed on NSO cells (human, UniProt P18627 29-525).
T1 sequence: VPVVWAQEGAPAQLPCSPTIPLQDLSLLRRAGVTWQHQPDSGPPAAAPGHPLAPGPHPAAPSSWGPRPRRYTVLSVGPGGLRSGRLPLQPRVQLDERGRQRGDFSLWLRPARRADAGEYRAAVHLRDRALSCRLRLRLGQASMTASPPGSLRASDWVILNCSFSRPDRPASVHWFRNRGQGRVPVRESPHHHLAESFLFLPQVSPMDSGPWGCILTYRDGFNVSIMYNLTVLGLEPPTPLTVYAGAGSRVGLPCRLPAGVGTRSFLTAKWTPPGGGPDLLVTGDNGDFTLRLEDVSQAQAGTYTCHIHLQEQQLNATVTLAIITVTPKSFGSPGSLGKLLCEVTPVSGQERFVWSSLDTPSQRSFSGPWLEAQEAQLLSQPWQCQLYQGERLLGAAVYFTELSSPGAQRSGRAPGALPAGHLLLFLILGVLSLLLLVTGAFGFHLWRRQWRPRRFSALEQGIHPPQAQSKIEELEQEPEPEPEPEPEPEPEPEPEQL
Kind of assay: FACS saturation binding to NSO cells expressing LAG-3; SM; SD 0.1376.

For assay [2], the target named is T2, biotinylated-soluble human LAG-3-Fc fusion protein (human, UniProt P18627 23-450, biotinylated (site not stated)).
T2 construct: whole entry named; also called shLAG-3; shLAG-3-Fc; not shown: Fc
T2 sequence: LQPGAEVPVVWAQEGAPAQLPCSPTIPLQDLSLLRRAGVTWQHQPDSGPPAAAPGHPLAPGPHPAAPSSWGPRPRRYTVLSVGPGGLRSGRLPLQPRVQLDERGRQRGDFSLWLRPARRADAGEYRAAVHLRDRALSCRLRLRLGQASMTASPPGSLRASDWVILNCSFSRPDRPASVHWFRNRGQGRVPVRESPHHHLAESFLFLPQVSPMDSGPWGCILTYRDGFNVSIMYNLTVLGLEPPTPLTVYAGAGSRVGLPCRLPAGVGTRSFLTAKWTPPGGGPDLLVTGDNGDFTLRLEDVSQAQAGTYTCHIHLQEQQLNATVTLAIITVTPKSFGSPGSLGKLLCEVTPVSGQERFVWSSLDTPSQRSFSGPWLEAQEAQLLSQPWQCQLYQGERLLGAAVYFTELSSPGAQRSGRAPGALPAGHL
Put plainly: FACS: inhibition of shLAG-3-Fc binding to MHC II on Daudi cells (column head prints EC50); SM; SD 0.1900. Background: Flow cytometry measures light scatter and fluorescence of single cells or particles in a stream.

Assay [3] addresses T2, biotinylated-soluble human LAG-3-Fc …. Put plainly: FACS: inhibition of shLAG-3-Fc binding to MHC II on Daudi cells (column head prints EC50); SM; SD 0.3407.
For assay [4], the target named is T1, human LAG-3 expressed on NSO cells. Kind of assay: FACS saturation binding to NSO cells expressing LAG-3; SM; SD 0.1660.
For assay [5], the target named is T2, biotinylated-soluble human LAG-3-Fc …. Put plainly: FACS: inhibition of shLAG-3-Fc binding to MHC II on Daudi cells (column head prints EC50); SM; SD 0.1409.
For assay [6], the target named is T1, human LAG-3 expressed on NSO cells. Put plainly: FACS saturation binding to NSO cells expressing LAG-3; SM; SD 0.3430.

B1: LAG-3 mAb A IgG4 (P) (antibody, V domains shown)
VH: QVQLQQWGAGLLKPSETLSLTCAVYGGSFSDYYWNWIRQPPGKGLEWIGEINHNGNTNSNPSLKSRVTLSLDTSKNQFSLKLRSVTAADTAVYYCAFGYSDYEYNWFDPWGQGTLVTVSS
VL: EIVLTQSPATLSLSPGERATLSCRASQSISSYLAWYQQKPGQAPRLLIYDASNRATGIPARFSGSGSGTDFTLTISSLEPEDFAVYYCQQRSNWPLTFGQGTNLEIK
notes: IgG4 (P); also called 25F7
The molecule B1 showed an EC50 in assay [1] of 597 nM. In addition, in assay [2], the IC50 came to 701 nM.

B2: LAG-3 mAb A IgG1 (AA) (antibody, V domains shown)
VH: QVQLQQWGAGLLKPSETLSLTCAVYGGSFSDYYWNWIRQPPGKGLEWIGEINHNGNTNSNPSLKSRVTLSLDTSKNQFSLKLRSVTAADTAVYYCAFGYSDYEYNWFDPWGQGTLVTVSS
VL: EIVLTQSPATLSLSPGERATLSCRASQSISSYLAWYQQKPGQAPRLLIYDASNRATGIPARFSGSGSGTDFTLTISSLEPEDFAVYYCQQRSNWPLTFGQGTNLEIK
notes: IgG1 (AA)
Take B2: in assay [3], the IC50 worked out at 592 nM. The molecule also registered a half-maximal effective concentration (EC50) in assay [4] of 452 nM.

B3: hLAG-3 mAb 1 (1.4) IgG1 (AA) (antibody, V domains shown)
VH: QVQLVQSGAEVKKPGASVKVSCKASGYTFTNYGMNWVRQAPGQGLEWMGWINTYTGESTYADDFEGRFVFSMDTSASTAYLQISSLKAEDTAVYYCARESLYDYYSMDYWGQGTTVTVSS
VL: DIVMTQTPLSLSVTPGQPASISCKSSQSLLHSDAKTYLNWLLQKPGQPPERLIYLVSELDSGVPDRFSGSGSGTDFTLKISRVEAEDVGVYYCWQGTHFPYTFGGGTKVEIK
Turning to B3, in assay [5], the IC50 came to 364 nM. The same molecule registered an EC50 in assay [6] of 607 nM.

A word on the EC50: it is the concentration that produces a half-maximal response. Read a high EC50 as a less potent agent. A word on the IC50: it is the concentration that gives 50% inhibition. Low readings indicate higher potency, high ones lower potency.
